Results: patent US20220204580A1 (AstraZeneca / MedImmune, published 2022)
Numbered stars: 1 amine (or outer) side, 2 acyl side, 3 side chain; on linkers, the order of the positions; unused ones are H or OH. Bridge positions count the residues as written; N and C are the ends. Square brackets hold non-standard residues; d marks the D form. Side chains are listed from the residue outwards. Ends that are not written are not given here. * marks the point of attachment. C18 diacid = O=C(O)CCCCCCCCCCCCCCCCC(=O)*; γGlu = O=C(O)[C@H](CCC(=O)[*:2])N[*:1]; αMeF = C[C@](N)(Cc1ccccc1)C(=O)O; αMeS = C[C@](N)(CO)C(=O)O; Aib = CC(C)(N)C(=O)O

T1: human amylin receptor (calcitonin receptor co-expressed with receptor activity modifying protein, RAMP3) (human, UniProt P30988 25-474; O60896 24-148)
T1 sequence (looked up) 1: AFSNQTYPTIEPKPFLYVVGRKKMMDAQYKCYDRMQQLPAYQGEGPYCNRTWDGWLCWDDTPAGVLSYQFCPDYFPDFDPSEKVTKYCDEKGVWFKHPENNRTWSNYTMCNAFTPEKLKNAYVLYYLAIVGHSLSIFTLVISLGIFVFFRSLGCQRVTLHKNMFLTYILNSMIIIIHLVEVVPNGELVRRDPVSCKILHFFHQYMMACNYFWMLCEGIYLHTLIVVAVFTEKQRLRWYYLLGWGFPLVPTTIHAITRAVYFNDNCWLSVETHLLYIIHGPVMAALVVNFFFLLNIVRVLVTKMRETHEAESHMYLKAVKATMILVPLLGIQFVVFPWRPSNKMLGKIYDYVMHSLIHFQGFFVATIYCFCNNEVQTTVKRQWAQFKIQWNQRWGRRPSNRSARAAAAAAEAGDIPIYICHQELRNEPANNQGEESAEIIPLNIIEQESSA
T1 sequence (looked up) 2: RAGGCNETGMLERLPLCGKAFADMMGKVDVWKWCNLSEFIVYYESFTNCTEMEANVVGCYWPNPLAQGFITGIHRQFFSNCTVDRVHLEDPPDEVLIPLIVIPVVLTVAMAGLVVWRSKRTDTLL

T2: human calcitonin receptor (human, UniProt P30988 25-474)
T2 sequence (looked up): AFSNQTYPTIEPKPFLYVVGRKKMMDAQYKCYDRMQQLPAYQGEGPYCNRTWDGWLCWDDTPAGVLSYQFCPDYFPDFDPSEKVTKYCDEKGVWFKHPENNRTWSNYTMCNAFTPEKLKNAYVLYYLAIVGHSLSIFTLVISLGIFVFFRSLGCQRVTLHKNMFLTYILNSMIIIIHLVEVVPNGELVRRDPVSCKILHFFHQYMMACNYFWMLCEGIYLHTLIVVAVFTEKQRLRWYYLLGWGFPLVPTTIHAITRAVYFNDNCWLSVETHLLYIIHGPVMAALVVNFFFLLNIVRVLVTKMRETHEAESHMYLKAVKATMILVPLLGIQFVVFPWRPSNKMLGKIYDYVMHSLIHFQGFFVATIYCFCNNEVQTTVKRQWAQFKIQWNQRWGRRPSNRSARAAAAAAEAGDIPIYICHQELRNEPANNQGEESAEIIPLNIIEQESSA


Key:
[1] = target: T1, human amylin receptor (calcitonin …); assay: cell-based or functional assay
[2] = target: T2, human calcitonin receptor; assay: cell-based or functional assay

Binder | EC50 (cAMP production) [1] [nM] | Ratio (EC50 hCTR / EC50 hAMYR3) [1] | EC50 (cAMP production) [2] [nM]
K([γGlu-γGlu-C18 diacid])CNTATCATQRLANFLVHSSNN[αMeF]GPILPPTEVGSNTY-NH2 (disulfide 2-7; N-terminus assumed; SMILES CC[C@H](C)[C@H](NC(=O)[C@@H]1CCCN1C(=O)CNC(=O)[C@](C)(Cc1ccccc1)NC(=O)[C@H](CC(N)=O)NC(=O)[C@H](CC(N)=O)NC(=O)[C@H](CO)NC(=O)[C@H](CO)NC(=O)[C@H](Cc1c[nH]cn1)NC(=O)[C@@H](NC(=O)[C@H](CC(C)C)NC(=O)[C@H](Cc1ccccc1)NC(=O)[C@H](CC(N)=O)NC(=O)[C@H](C)NC(=O)[C@H](CC(C)C)NC(=O)[C@H](CCCNC(=N)N)NC(=O)[C@H](CCC(N)=O)NC(=O)[C@@H](NC(=O)[C@H](C)NC(=O)[C@@H]1CSSC[C@H](NC(=O)[C@@H](N)CCCCNC(=O)CC[C@H](NC(=O)CC[C@H](NC(=O)CCCCCCCCCCCCCCCCC(=O)O)C(=O)O)C(=O)O)C(=O)N[C@@H](CC(N)=O)C(=O)N[C@@H]([C@@H](C)O)C(=O)N[C@@H](C)C(=O)N[C@@H]([C@@H](C)O)C(=O)N1)[C@@H](C)O)C(C)C)C(=O)N[C@@H](CC(C)C)C(=O)N1CCC[C@H]1C(=O)N1CCC[C@H]1C(=O)N[C@H](C(=O)N[C@@H](CCC(=O)O)C(=O)N[C@H](C(=O)NCC(=O)N[C@@H](CO)C(=O)N[C@@H](CC(N)=O)C(=O)N[C@H](C(=O)N[C@@H](Cc1ccc(O)cc1)C(N)=O)[C@@H](C)O)C(C)C)[C@@H](C)O) [Peptide 23 (SEQ ID NO: 23)] | 0.238 | 2 | 0.589
K([γGlu-γGlu-C18 diacid])CNTATCATQRLANFL[Aib]HSSNN[αMeF]GPILPPTNVGSNTY-NH2 (disulfide 2-7; N-terminus assumed; SMILES CC[C@H](C)[C@H](NC(=O)[C@@H]1CCCN1C(=O)CNC(=O)[C@](C)(Cc1ccccc1)NC(=O)[C@H](CC(N)=O)NC(=O)[C@H](CC(N)=O)NC(=O)[C@H](CO)NC(=O)[C@H](CO)NC(=O)[C@H](Cc1c[nH]cn1)NC(=O)C(C)(C)NC(=O)[C@H](CC(C)C)NC(=O)[C@H](Cc1ccccc1)NC(=O)[C@H](CC(N)=O)NC(=O)[C@H](C)NC(=O)[C@H](CC(C)C)NC(=O)[C@H](CCCNC(=N)N)NC(=O)[C@H](CCC(N)=O)NC(=O)[C@@H](NC(=O)[C@H](C)NC(=O)[C@@H]1CSSC[C@H](NC(=O)[C@@H](N)CCCCNC(=O)CC[C@H](NC(=O)CC[C@H](NC(=O)CCCCCCCCCCCCCCCCC(=O)O)C(=O)O)C(=O)O)C(=O)N[C@@H](CC(N)=O)C(=O)N[C@@H]([C@@H](C)O)C(=O)N[C@@H](C)C(=O)N[C@@H]([C@@H](C)O)C(=O)N1)[C@@H](C)O)C(=O)N[C@@H](CC(C)C)C(=O)N1CCC[C@H]1C(=O)N1CCC[C@H]1C(=O)N[C@H](C(=O)N[C@@H](CC(N)=O)C(=O)N[C@H](C(=O)NCC(=O)N[C@@H](CO)C(=O)N[C@@H](CC(N)=O)C(=O)N[C@H](C(=O)N[C@@H](Cc1ccc(O)cc1)C(N)=O)[C@@H](C)O)C(C)C)[C@@H](C)O) [Peptide 26 (SEQ ID NO: 26)] | 0.409 | 7 | 2.8
{C18 diacid}-[γGlu][γGlu]GGGKCNTATCATQRLANFLVHSSNNFGPILPPTNVGSNTY-NH2 (disulfide 7-12) [Peptide 4 (SEQ ID NO: 4)] | 0.248 | 30 | 7.53
K([γGlu-γGlu-C18 diacid])CNTATCATQRLANFLVHS[αMeS]NNFGPILPPTNVGSNTY-NH2 (disulfide 2-7) [Peptide 22 (SEQ ID NO: 22)] | 0.162 | 40 | 6.54

Second part, the binder after the results:

EC50 (cAMP production) [1] [nM] | Ratio (EC50 hCTR / EC50 hAMYR3) [1] | EC50 (cAMP production) [2] [nM] | Binder
0.105 | 12 | 1.25 | K([γGlu-C18 diacid])CNTATCATQRLANFLVHSSNN[αMeF]GPILPPTRVGSNTY-NH2 (disulfide 2-7; N-terminus assumed; SMILES CC[C@H](C)[C@H](NC(=O)[C@@H]1CCCN1C(=O)CNC(=O)[C@](C)(Cc1ccccc1)NC(=O)[C@H](CC(N)=O)NC(=O)[C@H](CC(N)=O)NC(=O)[C@H](CO)NC(=O)[C@H](CO)NC(=O)[C@H](Cc1c[nH]cn1)NC(=O)[C@@H](NC(=O)[C@H](CC(C)C)NC(=O)[C@H](Cc1ccccc1)NC(=O)[C@H](CC(N)=O)NC(=O)[C@H](C)NC(=O)[C@H](CC(C)C)NC(=O)[C@H](CCCNC(=N)N)NC(=O)[C@H](CCC(N)=O)NC(=O)[C@@H](NC(=O)[C@H](C)NC(=O)[C@@H]1CSSC[C@H](NC(=O)[C@@H](N)CCCCNC(=O)CC[C@H](NC(=O)CCCCCCCCCCCCCCCCC(=O)O)C(=O)O)C(=O)N[C@@H](CC(N)=O)C(=O)N[C@@H]([C@@H](C)O)C(=O)N[C@@H](C)C(=O)N[C@@H]([C@@H](C)O)C(=O)N1)[C@@H](C)O)C(C)C)C(=O)N[C@@H](CC(C)C)C(=O)N1CCC[C@H]1C(=O)N1CCC[C@H]1C(=O)N[C@H](C(=O)N[C@@H](CCCNC(=N)N)C(=O)N[C@H](C(=O)NCC(=O)N[C@@H](CO)C(=O)N[C@@H](CC(N)=O)C(=O)N[C@H](C(=O)N[C@@H](Cc1ccc(O)cc1)C(N)=O)[C@@H](C)O)C(C)C)[C@@H](C)O) [Peptide 25 (SEQ ID NO: 25)]
0.136 | 25 | 3.41 | K([γGlu-γGlu-C18 diacid])CNTATCATQRLANFLVHSSNN[αMeF]GPILPPTNVGSRTY-NH2 (disulfide 2-7; N-terminus assumed; SMILES CC[C@H](C)[C@H](NC(=O)[C@@H]1CCCN1C(=O)CNC(=O)[C@](C)(Cc1ccccc1)NC(=O)[C@H](CC(N)=O)NC(=O)[C@H](CC(N)=O)NC(=O)[C@H](CO)NC(=O)[C@H](CO)NC(=O)[C@H](Cc1c[nH]cn1)NC(=O)[C@@H](NC(=O)[C@H](CC(C)C)NC(=O)[C@H](Cc1ccccc1)NC(=O)[C@H](CC(N)=O)NC(=O)[C@H](C)NC(=O)[C@H](CC(C)C)NC(=O)[C@H](CCCNC(=N)N)NC(=O)[C@H](CCC(N)=O)NC(=O)[C@@H](NC(=O)[C@H](C)NC(=O)[C@@H]1CSSC[C@H](NC(=O)[C@@H](N)CCCCNC(=O)CC[C@H](NC(=O)CC[C@H](NC(=O)CCCCCCCCCCCCCCCCC(=O)O)C(=O)O)C(=O)O)C(=O)N[C@@H](CC(N)=O)C(=O)N[C@@H]([C@@H](C)O)C(=O)N[C@@H](C)C(=O)N[C@@H]([C@@H](C)O)C(=O)N1)[C@@H](C)O)C(C)C)C(=O)N[C@@H](CC(C)C)C(=O)N1CCC[C@H]1C(=O)N1CCC[C@H]1C(=O)N[C@H](C(=O)N[C@@H](CC(N)=O)C(=O)N[C@H](C(=O)NCC(=O)N[C@@H](CO)C(=O)N[C@@H](CCCNC(=N)N)C(=O)N[C@H](C(=O)N[C@@H](Cc1ccc(O)cc1)C(N)=O)[C@@H](C)O)C(C)C)[C@@H](C)O) [Peptide 21 (SEQ ID NO: 21)]
